Data published in patent US20220017627A1 (Bristol-Myers Squibb, published 2022).

What was measured:
[1] = molecular target: T1, his-tagged cynomolgus-IL7R extracellular domain construct (cynomolgus, UniProt Q38IC7 21-240); test: SPR (Biacore T200), pH 6.0 against pH 7.4
T1 construct: also called cyno IL-7Rα; not shown: his tag
T1 sequence: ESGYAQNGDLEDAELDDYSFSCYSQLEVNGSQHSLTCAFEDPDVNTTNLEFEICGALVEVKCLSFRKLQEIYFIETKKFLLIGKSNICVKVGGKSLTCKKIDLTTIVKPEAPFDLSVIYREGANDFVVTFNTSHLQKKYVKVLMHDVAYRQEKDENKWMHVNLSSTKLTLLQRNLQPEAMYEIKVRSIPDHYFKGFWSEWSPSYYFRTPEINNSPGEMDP
Experimental: (§1) Briefly, experiments were performed on a BIACORE™ T200 instrument (GE Healthcare, Chicago, Ill., USA) in a running buffer consisting of 10 mM NaPO4, 130 mM NaCl, 0.05% p20 (PBS-T) at either pH 7.4 or pH 6.0. The chip surface was prepared by immobilizing protein A on flow cell 1, 2, 3, and 4 of a CM5 sensor chip using ethyl(dimethylaminopropyl) carbodiimide/NHS to a density of 4000 RU. […] Purified extracellular domain constructs (generated in house) of his-tagged human-IL7R or cynomolgus-IL7R were tested for binding using a 2 fold serial dilution from 500 nM to 7.8 nM, with 180 s association time and 360 s dissociation time at 30 μl/min. Regeneration between cycles was accomplished using 2×30 second injections of 10 mM glycine-HCL pH 1.5. The data were analyzed using the Biacore T200 Evaluation software (GE Healthcare), and fit to a 1:1 Langmuir model.

[2] = molecular target: T2, his-tagged human-IL7R extracellular domain construct (human, UniProt P16871 21-239); test: SPR (Biacore T200), pH 6.0 against pH 7.4
T2 construct: Generated in house; also called human IL-7Rα; not shown: his tag
T2 chain: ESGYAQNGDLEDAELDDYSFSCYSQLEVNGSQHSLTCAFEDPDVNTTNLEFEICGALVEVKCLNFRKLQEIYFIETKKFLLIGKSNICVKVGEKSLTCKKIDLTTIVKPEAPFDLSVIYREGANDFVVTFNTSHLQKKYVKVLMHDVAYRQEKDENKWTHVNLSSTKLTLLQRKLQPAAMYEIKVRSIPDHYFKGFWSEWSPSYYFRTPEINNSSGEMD
Experimental: as §1

[3] = molecular target: T3, human IL-7Rα expressed on human T cells (whole blood / PBMCs) (human, UniProt P16871 21-239); test: cell-based or functional assay
T3 chain: T2 chain

[4] = molecular target: T3, human IL-7Rα expressed on human T cells …; test: cell-based or functional assay
[5] = molecular target: T1, his-tagged cynomolgus-IL7R …; test: SPR (Biacore T200), antibody captured on protein A, his-tagged ECD as analyte, 37° C., pH 7.4
Experimental: as §1

[6] = molecular target: T2, his-tagged human-IL7R extracellular …; test: as above
Experimental: as §1

[7] = molecular target: T3, human IL-7Rα expressed on human T cells …; test: flow cytometry binding, CD8+CD45RA+ T cells in whole blood
[8] = molecular target: T3, human IL-7Rα expressed on human T cells …; test: flow cytometry binding, CD4+CD45RA+ T cells in whole blood
[9] = molecular target: T3, human IL-7Rα expressed on human T cells …; test: flow cytometry binding, CD4+CD45RA- T cells in whole blood
[10] = molecular target: T4, cynomolgus IL-7Rα expressed on cynomolgus T cells / leukocytes (cynomolgus, UniProt Q38IC7 21-459); test: cell-based or functional assay
T4 sequence: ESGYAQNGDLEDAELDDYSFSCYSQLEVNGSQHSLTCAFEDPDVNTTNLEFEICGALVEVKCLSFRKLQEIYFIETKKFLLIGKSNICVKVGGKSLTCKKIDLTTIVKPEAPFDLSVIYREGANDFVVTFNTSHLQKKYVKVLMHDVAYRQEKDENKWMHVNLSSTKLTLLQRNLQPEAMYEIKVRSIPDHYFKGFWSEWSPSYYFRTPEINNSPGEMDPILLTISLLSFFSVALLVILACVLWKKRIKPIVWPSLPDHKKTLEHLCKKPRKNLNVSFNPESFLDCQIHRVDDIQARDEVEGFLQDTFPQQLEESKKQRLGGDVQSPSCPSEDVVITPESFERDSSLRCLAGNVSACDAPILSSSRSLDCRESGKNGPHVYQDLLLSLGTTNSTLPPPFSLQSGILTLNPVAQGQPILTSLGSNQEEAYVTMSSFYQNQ

[11] = molecular target: T1, his-tagged cynomolgus-IL7R …; test: SPR (Biacore T200), antibody captured on protein A, his-tagged ECD as analyte, 37° C., pH 6.0
Experimental: as §1

[12] = molecular target: T2, his-tagged human-IL7R extracellular …; test: as above
Experimental: as §1

[13] = molecular target: T5, hIL-7R (Example 11) (human, UniProt P16871 21-239); test: Biacore, mAb captured on anti-human IgG CM5 chip, hu IL-7R as analyte (top curve 33.3nM), HBS-P+ pH 7.4, 37 C
T5 construct: Called full length hIL-7R for the mRNA display and hIL-7R for the Biacore runs; also called full length hIL-7R; human IL-7R
T5 chain: T2 chain
From the text: (§2) Affinity (KD) of each variant binding to hIL-7R was obtained using this approach, and compared against the enrichment ratio (ER) obtained through NGS heat map analysis for the same variant.

[14] = molecular target: T4, cynomolgus IL-7Rα expressed on …; test: flow cytometry, occupancy of IL-7Ra on CD4+CD45RA+ T cells of cynomolgus monkeys after a single i.v. dose, against serum concentration
Experimental: To confirm the above cross-reactivity data, cellular binding and functional blockade were also assessed. […] Then, at day 8 post-administration, PBMCs were isolated from the animals.

[15] = molecular target: T5, hIL-7R (Example 11); test: SPR (Biacore), reference of the ratio [cont'd]
From the text: as §2

[16] = molecular target: T3, human IL-7Rα expressed on human T cells …; test: flow cytometry binding, CD8+CD45RA- T cells in whole blood

B1: Anti-IL-7R Antibody (Antibody A) (antibody, human IgG1, kappa, V domains shown)
VH: EVQLVESGGGLVQPGRSLRLSCAASGFTFDDHAMHWVRQAPGKGLEWVSGISWNSRGIGYADSVKGRFTIFRDNAKNSLYLQMNSLRAEDTALYYCAKDEYSRGYYVLDVWGQGTTVTVSS
VL: AIQLTQSPSSLSASVGDRVTITCRASQGISSALAWYQQKPGKAPKLLIYDASSLESGVPSRFSGSGSGTDFTLTISSLQPEDFATYYCQQFNSYPLWITFGQGTRLEIKR
notes: also called 18B1; 18B1 antibody
In the case of B1, the “fold weaker binding at pH 6.0 than at pH 7.4” value [1] is reported as roughly 4 fold, the “fold weaker binding at pH 6.0 than at pH 7.4” value [2] is reported as roughly 4 fold and the “pSTAT5 IC50, CD4+CD45RA+ T cells in whole blood, IL-7 (0.25 ng/mL)” value [3] is reported as 0.6 nM. For the same binder, the “pSTAT5 IC50, CD4+CD45RA+ T cells in whole blood, IL-7 (2.0 ng/mL)” value [3] was 2.1 nM, the “pSTAT5 IC50, IL-7 stimulated CD4+CD45RA+ T cells, CD (n = 10)” value [4] was 0.36 nM and the “pSTAT5 IC50, IL-7 stimulated CD4+CD45RA+ T cells, NHV (n = 19)” value [4] was 0.6 nM. For the same binder, the “pSTAT5 IC50, IL-7 stimulated CD4+CD45RA+ T cells, UC (n = 21)” value [4] was 0.34 nM, the “pSTAT5 IC50, IL-7 stimulated CD4+CD45RA- T cells, CD (n = 10)” value [4] was 0.36 nM and the “pSTAT5 IC50, IL-7 stimulated CD4+CD45RA- T cells, NHV (n = 19)” value [4] was 0.52 nM. The “pSTAT5 IC50, IL-7 stimulated CD4+CD45RA- T cells, UC (n = 21)” value [4] was 0.28 nM, the “pSTAT5 IC50, IL-7 stimulated CD8+CD45RA+ T cells, CD (n = 10)” value [4] was 0.29 nM and the “pSTAT5 IC50, IL-7 stimulated CD8+CD45RA+ T cells, NHV (n = 19)” value [4] was 0.43 nM. The “pSTAT5 IC50, IL-7 stimulated CD8+CD45RA+ T cells, UC (n = 21)” value [4] was 0.29 nM, the “pSTAT5 IC50, IL-7 stimulated CD8+CD45RA- T cells, CD (n = 10)” value [4] was 0.23 nM and the “pSTAT5 IC50, IL-7 stimulated CD8+CD45RA- T cells, NHV (n = 19)” value [4] was 0.38 nM. The “pSTAT5 IC50, IL-7 stimulated CD8+CD45RA- T cells, UC (n = 21)” value [4] was 0.22 nM, the Kd [5] was 1.7 nM and the koff [5] was 0.0005 s⁻¹. For the same binder, the kon [5] was 290000 M⁻¹ s⁻¹, the Kd [6] was 1.3 nM and the koff [6] was 0.0004 s⁻¹. For the same binder, the kon [6] was 310000 M⁻¹ s⁻¹, the EC50 [7] was 2 nM and the EC50 [8] was 1.4 nM. For the same binder, the EC50 [9] was 3.3 nM, the “IC50 of IL-7 mediated pSTAT5 activation against serum antibody concentration, cynomolgus monkeys” value [10] was roughly 2 and the Kd [11] was 7 nM. It also gave a koff [11] of 0.0016 s⁻¹, a kon [11] of 230000 M⁻¹ s⁻¹ and a Kd [12] of 5.3 nM. It also gave a koff [12] of 0.0013 s⁻¹, a kon [12] of 240000 M⁻¹ s⁻¹ and a Kd [13] of 1.4 nM. The koff [13] was 0.00152 s⁻¹, the kon [13] was 1.09e+06 M⁻¹ s⁻¹ and the “EC50 (read off the curve)” value [14] was roughly 0.04 µg/mL. For the same binder, the “KD Relative to 18B1” value [15] was 1 and the EC50 [16] was 1.9 nM.
